Measurements as given in patent US20240343814A1.
Numbering of substitutions follows the chain as printed.

B1: VRDN-02516 (antibody, V domains shown)
VH: EVQLVQSGGGLVKPGGSLRLSCAASGFTFSSFAMHWVRQAPGKGLEWISVIDTRGATYYADSVKGRFTISRDNAKNSLYLQMNSLRAEDTAVYYCHRLGNFYYGMDVWGQGTTVTVSS
VL: EIVLTQSPGTLSVSPGERATLSCRASQSIGSSLHWYQQKPGQAPRLLIKYASQSLSGIPDRFSGSGSGTDFTLTISRLEPEDFAVYYCHQSSRLPHTFGQGTKVEIK
B2: VRDN-02517 (antibody, V domains shown)
VH: B1 VH with H96A, R97H
VL: B1 VL
B3: VRDN-02518 (antibody, V domains shown)
VH: B1 VH with H96A, L98H
VL: B1 VL
B4: VRDN-02519 (antibody, V domains shown)
VH: B1 VH with H96A, G99H
VL: B1 VL
B5: VRDN-02520 (antibody, V domains shown)
VH: B1 VH with H96A, N100H
VL: B1 VL
B6: VRDN-02521 (antibody, V domains shown)
VH: B1 VH with H96A, F101H
VL: B1 VL
B7: VRDN-02502 (antibody, V domains shown)
VH: B1 VH with F27H, H96A
VL: B1 VL
B8: VRDN-02522 (antibody, V domains shown)
VH: B1 VH with H96A, Y102H
VL: B1 VL
B9: VRDN-02523 (antibody, V domains shown)
VH: B1 VH with H96A, Y103H
VL: B1 VL
B10: VRDN-02524 (antibody, V domains shown)
VH: B1 VH with H96A, G104H
VL: B1 VL
B11: VRDN-02525 (antibody, V domains shown)
VH: B1 VH with H96A, M105H
VL: B1 VL
B12: VRDN-02527 (antibody, V domains shown)
VH: B1 VH with H96A, V107H
VL: B1 VL
B13: VRDN-02528 (antibody, V domains shown)
VH: B1 VH with H96A
VL: B1 VL with R24H
B14: VRDN-02529 (antibody, V domains shown)
VH: B1 VH with H96A
VL: B1 VL with A25H
B15: VRDN-02530 (antibody, V domains shown)
VH: B1 VH with H96A
VL: B1 VL with S26H
B16: VRDN-02531 (antibody, V domains shown)
VH: B1 VH with H96A
VL: B1 VL with Q27H
B17: VRDN-02503 (antibody, V domains shown)
VH: B1 VH with T28H, H96A
VL: B1 VL
B18: VRDN-02532 (antibody, V domains shown)
VH: B1 VH with H96A
VL: B1 VL with S28H
B19: VRDN-02533 (antibody, V domains shown)
VH: B1 VH with H96A
VL: B1 VL with I29H
B20: VRDN-02534 (antibody, V domains shown)
VH: B1 VH with H96A
VL: B1 VL with G30H
B21: VRDN-02535 (antibody, V domains shown)
VH: B1 VH with H96A
VL: B1 VL with S31H
B22: VRDN-02536 (antibody, V domains shown)
VH: B1 VH with H96A
VL: B1 VL with S32H
B23: VRDN-02537 (antibody, V domains shown)
VH: B1 VH with H96A
VL: B1 VL with L33H
B24: VRDN-02539 (antibody, V domains shown)
VH: B1 VH with H96A
VL: B1 VL with Y50H
B25: VRDN-02540 (antibody, V domains shown)
VH: B1 VH with H96A
VL: B1 VL with A51H
B26: VRDN-02541 (antibody, V domains shown)
VH: B1 VH with H96A
VL: B1 VL with S52H
B27: VRDN-02504 (antibody, V domains shown)
VH: B1 VH with F29H, H96A
VL: B1 VL
B28: VRDN-02542 (antibody, V domains shown)
VH: B1 VH with H96A
VL: B1 VL with Q53H
B29: VRDN-02543 (antibody, V domains shown)
VH: B1 VH with H96A
VL: B1 VL with S54H
B30: VRDN-02544 (antibody, V domains shown)
VH: B1 VH with H96A
VL: B1 VL with L55H

Target: Recombinant human his-tagged IGF 1R extracellular domain protein (human) (UniProt P08069)
Experiment: SPR, captured IgG, IGF-1R ECD-his analyte, dissociation pH 6

Binder	Kd [nM]	koff [s⁻¹]	kon [M⁻¹ s⁻¹]
B1	16.8	0.00196	117000
B2	5.07	0.000265	52300
B3	0.0385	1e-06	26000
B4	16.9	0.000627	37100
B5	0.0242	1e-06	41400
B6	0.05	1e-06	20000
B7	0.0375	1e-06	26700
B8	0.0376	1e-06	26600
B9	0.036	1e-06	27800
B10	1.22	4.66e-05	38300
B11	4.58	0.000147	32100
B12	0.0258	1e-06	38800
B13	0.0246	1e-06	40600
B14	0.0541	1e-06	18500
B15	0.029	1e-06	34500
B16	0.0319	1e-06	31300
B17	0.0262	1e-06	38100
B18	0.0292	1e-06	34300
B19	0.0493	1e-06	20300
B20	0.0393	1.17e-06	29800
B21	0.0273	1e-06	36600
B22	0.0228	1e-06	43900
B23	0.036	1e-06	27800
B24	21.6	0.000584	27000
B25	0.0662	1e-06	15100
B26	0.028	1e-06	35700
B27	0.0242	1e-06	41300
B28	0.0389	1e-06	25700
B29	0.025	1e-06	40000
B30	0.0275	1e-06	36300

Target: Recombinant human his-tagged IGF 1R extracellular domain protein (human) (UniProt P08069)
Experiment: SPR, captured IgG, IGF-1R ECD-his analyte, dissociation pH 7.4

Binder	Kd [nM]	koff [s⁻¹]	kon [M⁻¹ s⁻¹]
B1	2.35	0.000418	178000
B2	10.7	0.00264	247000
B3	0.549	6.31e-05	115000
B4	10.5	0.00366	348000
B5	0.0069	1e-06	145000
B6	1.48	7.2e-05	48500
B7	0.0244	4.1e-06	168000
B8	0.37	1.73e-05	46700
B9	0.717	2.74e-05	38200
B10	0.00752	1e-06	133000
B11	0.00758	1e-06	132000
B12	0.225	2.16e-05	95900
B13	0.252	3.55e-05	141000
B14	3.8	0.000103	27100
B15	0.102	1.53e-05	150000
B16	0.85	2.1e-05	24700
B17	1.53	0.000161	105000
B18	0.316	4.08e-05	129000
B19	0.519	4.45e-05	85700
B20	0.0051	1e-06	196000
B21	0.363	4.07e-05	112000
B22	0.00746	1e-06	134000
B23	0.802	7.16e-05	89300
B24	0.00588	1e-06	170000
B25	0.434	4.25e-05	97900
B26	0.00654	1e-06	153000
B27	5.08	0.000186	36600
B28	0.00535	1e-06	187000
B29	0.391	4.38e-05	112000
B30	0.483	6.18e-05	128000
